Results: article PMC5627055, “Interactions of the Bacillus subtilis DnaE polymerase with replisomal proteins modulate its activity and fidelity” (Open Biology, 2017)
Each block holds one binder with its values, some of them ahead of it.

How the values were obtained:
DnaE [1] = target: T1, DnaE (Bacillus subtilis, UniProt O34623 1-1115); assay: EMSA; 10 mM Mg2+; multiple shifted bands; EMSA: 20 mM HEPES pH 7.5, 50 mM NaCl, 10 mM MgCl2, 1 mM DTT, 0.66 nM radiolabelled substrate, 37 C 5 min; 5% native PAGE; settings: protein: recombinant; tags: N-terminal His6-MBP removed by TEV; label: radiolabel at 5' end; single strand
DnaE [2] = target: T1, DnaE; assay: EMSA; 10 mM Mg2+; EMSA: 20 mM HEPES pH 7.5, 50 mM NaCl, 10 mM MgCl2, 1 mM DTT, 0.66 nM radiolabelled substrate, 37 C 5 min; 5% native PAGE; settings: protein: recombinant; tags: N-terminal His6-MBP removed by TEV; 15 bp duplex; 15 nt 5' overhang of template (primer-template)
PolCexo- [3] = target: T2, PolCexo- (Bacillus subtilis, UniProt P13267 1-1437, D425A;E427A); assay: EMSA; 10 mM Mg2+; no detectable stable complex; EMSA: 20 mM HEPES pH 7.5, 50 mM NaCl, 10 mM MgCl2, 1 mM DTT, 0.66 nM radiolabelled substrate, 37 C 5 min; 5% native PAGE; settings: protein: recombinant; tags: N-terminal His tag removed by TEV; 15 bp duplex; 15 nt 5' overhang of template (primer-template)
[4] = target: T3, Bacillus subtilis PolC polymerase, wild type (B. subtilis, UniProt P13267 1-1437); assay: native gel or EMSA; DnaE (1 µM) pre-incubated with radiolabelled primed 3'-mismatch (A:G) DNA substrate (0.66 nM) at 37°C for 5 min, then increasing PolC or PolC_(exo-) (25-1000 nM) and 5 min more at 37°C; 20 mM HEPES pH 7.5, 50 mM NaCl, 10 mM MgCl2, 1 mM DTT; 5% native polyacrylamide gel; ternary template-DnaE-PolC complex read from the shifted DNA; settings: both partners purified
T3 construct: PolC, DNA polymerase of the C family with internal 3'>5' exonuclease domain, Bacillus subtilis; polC gene cloned into p2BT (p2BT-NT-HT-PolC); The N-terminal His-tag was removed with TEV protease during purification; also called wild-type PolC; source: E. coli BLR(DE3), purified (HisTrap, TEV cleavage, HisTrap flow through, HiTrap Q, Superdex-200); not shown: His-tag, N-terminal, cleaved

[5] = target: T4, Bacillus subtilis PolC_(exo-) (D425A/E427A) (B. subtilis, UniProt P13267 1-1437, D425A | E427A); assay: as above; settings: both partners purified
T4 construct: p2BT-NT-HT-PolC_(exo-); source: E. coli BLR(DE3), purified (HisTrap, TEV cleavage, HisTrap flow through, HiTrap Q, Superdex-200); not shown: His-tag, N-terminal, cleaved

DnaE [6] = target: T1, DnaE; assay: EMSA; 10 mM Mg2+; 1 uM DnaE; EMSA: 20 mM HEPES pH 7.5, 50 mM NaCl, 10 mM MgCl2, 1 mM DTT, 0.66 nM radiolabelled substrate, 37 C 5 min; 5% native PAGE; settings: protein: recombinant; tags: N-terminal His6-MBP removed by TEV; 14 bp duplex; 3'-terminal primer mismatch; 15 nt 5' overhang of template
PolCexo- [7] = target: T2, PolCexo-; assay: EMSA; 10 mM Mg2+; 1 uM PolCexo-; no detectable stable complex; EMSA: 20 mM HEPES pH 7.5, 50 mM NaCl, 10 mM MgCl2, 1 mM DTT, 0.66 nM radiolabelled substrate, 37 C 5 min; 5% native PAGE; settings: protein: recombinant; tags: N-terminal His tag removed by TEV; 14 bp duplex; 3'-terminal primer mismatch; 15 nt 5' overhang of template
DnaE;PolCexo- = DnaE;PolCexo- (Bacillus subtilis;Bacillus subtilis, UniProt O34623;P13267 1-1115;1-1437, |D425A;E427A); assay: EMSA; 10 mM Mg2+; 1 uM DnaE, 25-1000 nM PolCexo-; ternary complex; EMSA: 20 mM HEPES pH 7.5, 50 mM NaCl, 10 mM MgCl2, 1 mM DTT, 0.66 nM radiolabelled substrate, 37 C 5 min; 5% native PAGE; settings: protein: recombinant;recombinant; tags: N-terminal His6-MBP removed by TEV;N-terminal His tag removed by TEV; copies: 1;1; 14 bp duplex; 3'-terminal primer mismatch; 15 nt 5' overhang of template
DnaE;PolC = DnaE;PolC (Bacillus subtilis;Bacillus subtilis, UniProt O34623;P13267 1-1115;1-1437, |); assay: EMSA; 10 mM Mg2+; 1 uM DnaE, 25-1000 nM PolC; ternary complex, then DNA digested by PolC; EMSA: 20 mM HEPES pH 7.5, 50 mM NaCl, 10 mM MgCl2, 1 mM DTT, 0.66 nM radiolabelled substrate, 37 C 5 min; 5% native PAGE; settings: protein: recombinant;recombinant; tags: N-terminal His6-MBP removed by TEV;N-terminal His tag removed by TEV; copies: 1;1; 14 bp duplex; 3'-terminal primer mismatch; 15 nt 5' overhang of template

B1: ssDNA 30mer (ssDNA)
DNA: ACACACACACACACACACACACACCCCCTT
binding result (DnaE [1]): binds

B2: DNA-primed 30mer template (dsDNA)
DNA 1: B1 DNA
DNA 2: AAGGGGGTGTGTGTG
binding result (DnaE [2]): binds
binding result (PolCexo- [3]): no binding

binding result [4]: binds
binding result [5]: binds
B3: Bacillus subtilis DnaE polymerase, wild type (enzyme, B. subtilis, UniProt O34623 1-1115, looked up)
chain: MSFVHLQVHSGYSLLNSAAAVEELVSEADRLGYASLALTDDHVMYGAIQFYKACKARGINPIIGLTASVFTDDSELEAYPLVLLAKSNTGYQNLLKISSVLQSKSKGGLKPKWLHSYREGIIAITPGEKGYIETLLEGGLFEQAAQASLEFQSIFGKGAFYFSYQPFKGNQVLSEQILKLSEETGIPVTATGDVHYIRKEDKAAYRCLKAIKAGEKLTDAPAEDLPDLDLKPLEEMQNIYREHPEALQASVEIAEQCRVDVSLGQTRLPSFPTPDGTSADDYLTDICMEGLRSRFGKPDERYLRRLQYELDVIKRMKFSDYFLIVWDFMKHAHEKGIVTGPGRGSAAGSLVAYVLYITDVDPIKHHLLFERFLNPERVSMPDIDIDFPDTRRDEVIQYVQQKYGAMHVAQIITFGTLAAKAALRDVGRVFGVSPKEADQLAKLIPSRPGMTLDEARQQSPQLDKRLRESSLLQQVYSIARKIEGLPRHASTHAAGVVLSEEPLTDVVPLQEGHEGIYLTQYAMDHLEDLGLLKMDFLGLRNLTLIESITSMIEKEENIKIDLSSISYSDDKTFSLLSKGDTTGIFQLESAGMRSVLKRLKPSGLEDIVAVNALYRPGPMENIPLFIDRKHGRAPVHYPHEDLRSILEDTYGVIVYQEQIMMIASRMAGFSLGEADLLRRAVSKKKKEILDRERSHFVEGCLKKEYSVDTANEVYDLIVKFANYGFNRSHAVAYSMIGCQLAYLKAHYPLYFMCGLLTSVIGNEDKISQYLYEAKGSGIRILPPSVNKSSFPFTVENGSVRYSLRAIKSVGVSAVKDIYKARKEKPFEDLFDFCFRVPSKSVNRKMLEALIFSGAMDEFGQNRATLLASIDVALEHAELFAADDDQMGLFLDESFSIKPKYVETEELPLVDLLAFEKETLGIYFSNHPLSAFRKQLTAQGAVSILQAQRAVKRQLSLGVLLSKIKTIRTKTGQNMAFLTLSDETGEMEAVVFPEQFRQLSPVLREGALLFTAGKCEVRQDKIQFIMSRAELLEDMDAEKAPSVYIKIESSQHSQEILAKIKRILLEHKGETGVYLYYERQKQTIKLPESFHINADHQVLYRLKELLGQKNVVLKQW
notes: DnaE, DNA polymerase of the C family (DnaE3 group), Bacillus subtilis; dnaE gene cloned into p2CT (p2CT-NT-HT-DnaE); also called DnaEWT; source: E. coli BL21 (DE3) Rosetta, purified (HisTrap, TEV cleavage, HisTrap flow through, ammonium sulfate, HiTrap Q); not shown: His6, N-terminal, cleaved

B4: 3'-mismatch (A:G) DNA-primed 30mer template (dsDNA)
DNA 1: B1 DNA
DNA 2: AAGGGGGTGTGTGTA
binding result (DnaE [6]): binds
binding result (PolCexo- [7]): no binding
binding signal (DnaE;PolCexo-): ~4 fold shifted substrate vs DnaE alone (up to)
binding result (DnaE;PolC): binds
